Publication PMC4109720

Tests used:
[1] = target: myc-JIP1-F336A (human) (UniProt Q9UQF2); assay: co-IP
[2] = target: myc-JIP1-ΔLIR (human) (UniProt Q9UQF2); assay: co-IP

- percent of the GFP-LC3 binding of wildtype myc-JIP1 (densitometry of co-IP) [1]: 20%
- percent of the GFP-LC3 binding of wildtype myc-JIP1 (densitometry of co-IP) [2]: 20%
Substance: GFP-LC3 (from UniProt Q9GZQ8 1-120) (natural protein)
